B1: library; numbered along this chain (parent)
chain: MRKPRAAVGSGHRKQAASQEGRQKHAKNNSQAKPSACDGLARQPEEVVLQASVSSYHLFRDVAEVTAFRGSLLSWYDQEKRDLPWRRRAEDEMDLDRRAYAVWVSEVMLQQTQVATVINYYTGWMQKWPTLQDLASASLEEVNQLWAGLGYYSRGRRLQEGARKVVEELGGHMPRTAETLQQLLPGVGRYTAGAIASIAFGQATGVVDGNVARVLCRVRAIGADPSSTLVSQQLWGLAQQLVDPARPGDFNQAAMELGATVCTPQRPLCSQCPVESLCRARQRVEQEQLLASGSLSGSPDVEECAPNTGQCHLCLPPSEPWDQTLGVVNFPRKASRKPPREESSATCVLEQPGALGAQILLVQRPNSGLLAGLWEFPSVTWEPSEQLQRKALLQELQRWAGPLPATHLRHLGEVVHTFSHIKLTYQVYGLALEGQTPVTTVPPGARWLTQEEFHTAAVSTAMKKVFRVYQGQQPGTCMGSKRSQVSSPCSRKKPRMGQQVLDNFFRSHISTDAHSLNSAAQ

Variants of: B1
Assay: 8OG:A repair function score (normalized; synonymous = 0, nonsense = -1) (normalized log-likelihood score); higher = more repair activity (WT-like)
Details: with 8OG:A DNA repair reporter (GFP) in HEK-293 MUTYH KO cells
Summary of the method: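 MUTYH knockout HEK-293 cells carrying lentiviral MUTYH cDNA NNN codon-scan libraries were grown with 10 pg/ml doxycycline and co-transfected with mCherry and a GFP reporter of 8OG:A repair. Viable mCherry+ cells were sorted at 72 h into GFP+ (repair) and GFP− bins, with three replicates per tile, and tile amplicons were sequenced. Rosace fitness scores for each tile were turned into a normalized repair function score anchored on the synonymous and nonsense distributions. Synonymous medians were set to 0 and nonsense medians to -1, and variants below 300 counts per million at the start were dropped.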
V214G was tested, and the “8OG:A repair function score” value was -0.9.
With P44G the “8OG:A repair function score” value was -0.111.
P44D was tested, and the “8OG:A repair function score” value was -0.119.
For A357F, the “8OG:A repair function score” value was -0.0934.
For P443T, the “8OG:A repair function score” value was -0.199.
For Q239G, the “8OG:A repair function score” value was -0.228.
For Q388V, the “8OG:A repair function score” value was 0.063.
In the case of E92K, the “8OG:A repair function score” value is reported as -0.0744.
E92A was tested, and the “8OG:A repair function score” value was -0.0671.
With E92V the “8OG:A repair function score” value was -0.0677.
For L215I, the “8OG:A repair function score” value was -0.331.
For L149T, the “8OG:A repair function score” value was -0.81.
For Q113M, the “8OG:A repair function score” value was -0.593.
Q113G was tested, and the “8OG:A repair function score” value was -0.109.
With E160W the “8OG:A repair function score” value was 0.0263.
L403T was tested, and the “8OG:A repair function score” value was 0.0396.
For L430D, the “8OG:A repair function score” value was -0.393.
L430M was tested, and the “8OG:A repair function score” value was -0.448.
In the case of L430V, the “8OG:A repair function score” value is reported as -0.165.
In the case of F453G, the “8OG:A repair function score” value is reported as -0.893.
In the case of M108T, the “8OG:A repair function score” value is reported as -0.981.
For E433M, the “8OG:A repair function score” value was -0.0329.
In the case of L139T, the “8OG:A repair function score” value is reported as 0.00391.
With L139E the “8OG:A repair function score” value was -0.17.
For T455N, the “8OG:A repair function score” value was 0.0652.
With M173W the “8OG:A repair function score” value was -0.276.
With E167T the “8OG:A repair function score” value was 0.067.
With E167K the “8OG:A repair function score” value was 0.0784.
E167C was tested, and the “8OG:A repair function score” value was -0.0723.
N210W was tested, and the “8OG:A repair function score” value was -1.01.
For N210P, the “8OG:A repair function score” value was -0.658.
In the case of N210V, the “8OG:A repair function score” value is reported as -0.927.
With D243I the “8OG:A repair function score” value was -0.858.
With P306M the “8OG:A repair function score” value was -0.0214.
In the case of P306W, the “8OG:A repair function score” value is reported as -0.009.
Y190T was tested, and the “8OG:A repair function score” value was -0.419.
In the case of L40G, the “8OG:A repair function score” value is reported as 0.0939.
For L40S, the “8OG:A repair function score” value was 0.073.
In the case of R163C, the “8OG:A repair function score” value is reported as -0.00395.
L234G was tested, and the “8OG:A repair function score” value was -0.994.
G471L was tested, and the “8OG:A repair function score” value was -0.0292.
For M125Y, the “8OG:A repair function score” value was -0.538.
For N329W, the “8OG:A repair function score” value was -0.525.
With D91V the “8OG:A repair function score” value was 0.0064.
R506V was tested, and the “8OG:A repair function score” value was -0.0196.
G150M was tested, and the “8OG:A repair function score” value was -1.44.
In the case of G150D, the “8OG:A repair function score” value is reported as -1.38.
With K493T the “8OG:A repair function score” value was 0.0143.
With G201V the “8OG:A repair function score” value was -0.331.
With G201N the “8OG:A repair function score” value was 0.0301.
A177W was tested, and the “8OG:A repair function score” value was -0.324.
In the case of F376P, the “8OG:A repair function score” value is reported as -1.02.
For D502M, the “8OG:A repair function score” value was -0.0464.
For D502K, the “8OG:A repair function score” value was -0.00432.
For L58W, the “8OG:A repair function score” value was 0.00529.
In the case of R88H, the “8OG:A repair function score” value is reported as 0.0048.
With V206S the “8OG:A repair function score” value was -0.585.
With V206N the “8OG:A repair function score” value was -0.923.
G123Y was tested, and the “8OG:A repair function score” value was -0.191.
G123N was tested, and the “8OG:A repair function score” value was -0.0109.
In the case of V284H, the “8OG:A repair function score” value is reported as -0.12.
For G412V, the “8OG:A repair function score” value was -0.894.
G412Q was tested, and the “8OG:A repair function score” value was -0.645.
For W374E, the “8OG:A repair function score” value was -0.436.
In the case of V500S, the “8OG:A repair function score” value is reported as 0.00727.
In the case of V500W, the “8OG:A repair function score” value is reported as -0.015.
With V500H the “8OG:A repair function score” value was 0.0251.
With R409G the “8OG:A repair function score” value was -0.342.
Y151W was tested, and the “8OG:A repair function score” value was -0.534.
In the case of Y151C, the “8OG:A repair function score” value is reported as -0.944.
With S510V the “8OG:A repair function score” value was -0.00843.
T424E was tested, and the “8OG:A repair function score” value was -0.45.
Q202R was tested, and the “8OG:A repair function score” value was -0.0857.
In the case of E451W, the “8OG:A repair function score” value is reported as -0.143.
With A36D the “8OG:A repair function score” value was -0.0511.
With Y425I the “8OG:A repair function score” value was 0.315.
In the case of T122W, the “8OG:A repair function score” value is reported as -0.16.
For S55Q, the “8OG:A repair function score” value was 0.00445.
With L73M the “8OG:A repair function score” value was -0.0108.
With V166H the “8OG:A repair function score” value was -0.183.
In the case of V166R, the “8OG:A repair function score” value is reported as -0.182.
With V468I the “8OG:A repair function score” value was -0.0279.
T116D was tested, and the “8OG:A repair function score” value was -1.03.
For W146N, the “8OG:A repair function score” value was -0.671.
F504M was tested, and the “8OG:A repair function score” value was 0.0285.
For L369G, the “8OG:A repair function score” value was -0.359.
For Q351N, the “8OG:A repair function score” value was -0.125.
In the case of A238Q, the “8OG:A repair function score” value is reported as -0.254.
With A238C the “8OG:A repair function score” value was -0.249.
L257G was tested, and the “8OG:A repair function score” value was -1.04.
For N366S, the “8OG:A repair function score” value was 0.0203.
For N366R, the “8OG:A repair function score” value was -0.0785.
In the case of Q50P, the “8OG:A repair function score” value is reported as 0.126.
With A63P the “8OG:A repair function score” value was -0.0204.
With A63G the “8OG:A repair function score” value was -0.0575.
For D322T, the “8OG:A repair function score” value was -0.0961.
G293K was tested, and the “8OG:A repair function score” value was -0.0447.
For D512P, the “8OG:A repair function score” value was -0.0253.
In the case of R156E, the “8OG:A repair function score” value is reported as -0.319.
R156G was tested, and the “8OG:A repair function score” value was -0.287.
In the case of V379H, the “8OG:A repair function score” value is reported as -0.391.
In the case of V379F, the “8OG:A repair function score” value is reported as -0.299.
With S292I the “8OG:A repair function score” value was 0.000296.
With E375N the “8OG:A repair function score” value was -0.407.
With L241E the “8OG:A repair function score” value was -0.98.
With L241D the “8OG:A repair function score” value was -0.924.
For L241K, the “8OG:A repair function score” value was -1.01.
L241Q was tested, and the “8OG:A repair function score” value was -0.948.
With K481S the “8OG:A repair function score” value was -0.00188.
With E395T the “8OG:A repair function score” value was -0.194.
P174R was tested, and the “8OG:A repair function score” value was -0.877.
In the case of L49N, the “8OG:A repair function score” value is reported as 0.241.
For L49K, the “8OG:A repair function score” value was -0.236.
In the case of S136K, the “8OG:A repair function score” value is reported as 0.0771.
A162S was tested, and the “8OG:A repair function score” value was -0.159.
With V65W the “8OG:A repair function score” value was -0.114.
For T440K, the “8OG:A repair function score” value was 0.0852.
For A220D, the “8OG:A repair function score” value was -0.821.
With V242S the “8OG:A repair function score” value was -0.772.
For I198C, the “8OG:A repair function score” value was -0.474.
With I198Q the “8OG:A repair function score” value was -0.466.
With P273R the “8OG:A repair function score” value was -0.526.
With S459H the “8OG:A repair function score” value was -0.136.
S459A was tested, and the “8OG:A repair function score” value was -0.218.
For S459P, the “8OG:A repair function score” value was -0.197.
With F250E the “8OG:A repair function score” value was -1.03.
F250S was tested, and the “8OG:A repair function score” value was -0.385.
With F250M the “8OG:A repair function score” value was -0.607.
For V107E, the “8OG:A repair function score” value was -0.669.
For H172K, the “8OG:A repair function score” value was 0.118.
With P494M the “8OG:A repair function score” value was -0.0511.
With P494Q the “8OG:A repair function score” value was -0.000555.
For R283G, the “8OG:A repair function score” value was -0.364.
In the case of A223V, the “8OG:A repair function score” value is reported as -0.38.
In the case of I221D, the “8OG:A repair function score” value is reported as -1.02.
In the case of E45C, the “8OG:A repair function score” value is reported as -0.0211.
S419Q was tested, and the “8OG:A repair function score” value was -0.333.
S419C was tested, and the “8OG:A repair function score” value was -0.434.
T324V was tested, and the “8OG:A repair function score” value was -0.0374.
With L392D the “8OG:A repair function score” value was -0.872.
For P488I, the “8OG:A repair function score” value was 0.0151.
In the case of A445L, the “8OG:A repair function score” value is reported as -0.363.
With S335M the “8OG:A repair function score” value was -0.0531.
K80Y was tested, and the “8OG:A repair function score” value was -0.271.
In the case of G186Q, the “8OG:A repair function score” value is reported as -0.401.
R482N was tested, and the “8OG:A repair function score” value was -0.0127.
In the case of C278W, the “8OG:A repair function score” value is reported as -1.05.
L448W was tested, and the “8OG:A repair function score” value was -0.658.
R157V was tested, and the “8OG:A repair function score” value was -0.362.
For R157I, the “8OG:A repair function score” value was -0.517.
P437R was tested, and the “8OG:A repair function score” value was -0.174.
In the case of P437W, the “8OG:A repair function score” value is reported as 0.078.
In the case of A513W, the “8OG:A repair function score” value is reported as -0.0476.
L373M was tested, and the “8OG:A repair function score” value was -0.286.
With L184H the “8OG:A repair function score” value was -1.05.
H312L was tested, and the “8OG:A repair function score” value was 0.0443.
With R246N the “8OG:A repair function score” value was -0.471.
In the case of Q394G, the “8OG:A repair function score” value is reported as 0.266.
Q394Y was tested, and the “8OG:A repair function score” value was -0.129.
In the case of G401W, the “8OG:A repair function score” value is reported as -0.421.
For P34W, the “8OG:A repair function score” value was 0.133.
With Q240E the “8OG:A repair function score” value was -0.919.
H407K was tested, and the “8OG:A repair function score” value was -0.104.
In the case of A199Q, the “8OG:A repair function score” value is reported as -1.11.
With V301D the “8OG:A repair function score” value was -0.39.
With V301M the “8OG:A repair function score” value was -0.126.
For G205M, the “8OG:A repair function score” value was -0.711.

— the supplement of paper PMC11908140
